In the supplement of paper PMC9170038:

Test system: MS2 coat protein
Experiment: apparent KD of MS2 coat protein; designed switch direction (-1 OFF switch, 1 ON switch): -1; higher = weaker reporter binding
Method in brief: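 Each step of the titration lasted 0.8–1.5 h at the lowest concentration and 10–20 min at the highest. The protein, SNAP-549-labelled MS2 coat protein, went from 0.7 or 1.5 nM doubling to 3 µM over RNA switches transcribed on Illumina chips by stalled E. coli RNA polymerase. Normalised cluster fluorescence was curve-fitted, and the per-design median over clusters is given as apparent KD.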

[1] = Eterna round: R95, input ligand: FMN 200 uM
[2] = Eterna round: R95, input ligand: microRNA oligo, concentration not stated
[3] = Eterna round: R95, input ligand: none
[4] = input ligand: microRNA oligo, concentration not stated

Row | Sequence | apparent KD of MS2 coat protein [1] | apparent KD of MS2 coat protein [2] | apparent KD of MS2 coat protein [3] | apparent KD of MS2 coat protein (input ligand: FMN 200 uM) | apparent KD of MS2 coat protein [4] | apparent KD of MS2 coat protein (input ligand: none)
1 | GAGAAACAUGAGGAUCACCCAUGUAAGGAUAUGCUGAAAAUCACGGAUUAAUCGUGCAGCAGAAGGUACAAAGG [Mat - Mod of my Eli Mod D42] (puzzle: Exclusion 1) | 142 nM | 110 nM | 143 nM |  |  | 
2 | GUGAGGGAGUGAGGAUAUCAGGGAGGUGGGAAAUGAGAAGGUACAUGAGGAUCACCCAUGUAAGAGUAGGGAAGAGAGAAGAGU [Default title] (Eterna round: R96, puzzle: Exclusion NG 1) |  |  |  | 78.7 nM | 109 nM | 83.8 nM
3 | AAAAGACAAGGAUAUACUUGGAAAAUAAAGCUUGAGGAAGUACUUGAGGAUCACCCAAGUAGAAGGUGUAGGCG [Edtiisre] (Eterna round: R97, puzzle: Exclusion 2) |  |  |  | 37.7 nM |  | 31.5 nM
4 | AUAGAGUCAGGAUAUUGCGCAGUGGACAUGAGGAUCACCCAUGUGAACUUCGUACCGGGCCAAGAAGGGACGGAAA [Onedra] (puzzle: Exclusion 5) | 96.6 nM | 21.5 nM | 31.1 nM |  |  | 
5 | GCUGCAAAUGUAGGAUAUCUGCACGUGUAGUGCAGAGAAGGACAUGAGGAUCACCCAUGUAGAUCAGCAGCAAUUAAUUUAAUU [ENG1/5-A3] (Eterna round: R96, puzzle: Exclusion NG 1) |  |  |  | 288 nM | 34.5 nM | 42.2 nM
6 | GCCUAUGUGGAGGAUAUCGACUUCGAAAGAAGUCGAGAAGGCCACACAUGAGGAUCACCCAUGUGGUGCCAGGC [Omei Ex6 H13] (Eterna round: R97, puzzle: Exclusion 6) |  |  |  | 336 nM |  | 293 nM
7 | AAACCUGAAGUUAGGAUAUGAAGUAUCACUAUACUUCAGAAGGAACUUGAGGAUCACCCAAGUAGCCGUGAGGC [jl-bmx4.4.66 ViennaUCT mod] (Eterna round: R97, puzzle: Brourd's mod of Exclusion 4) |  |  |  | 110 nM |  | 23 nM
8 | UACGAGUCAGGAUAUUGGGCAAUAGCAUUACGGAACGAUCACAAGAAGGGACAUGAGGAUCACCCAUGUUAUAU [Candy Rainbow 3] (puzzle: Exclusion 4) |  | 22.3 nM |  |  |  | 
9 | AUAGAUAUAGGAUAUGAGGUAUAGUACAUGAGGAUCACCCAUGUUGAUCGCAUGAACGAUUUAGAAGGAUACCUAA [Eternabot (L2) Solution 83] (Eterna round: R97, puzzle: Exclusion 5) |  |  |  | 643 nM |  | 1310 nM
10 | ACUUACUGAGGAUAUACUUAGAUUUACAUGAGGAUCACCCAUGUUCCUCUAUGUAUAUAUGUAGAAGGCAGAAGUA [Mat - Exclusion 5 - JL Mod - D50] (Eterna round: R97, puzzle: Exclusion 5) |  |  |  | 252 nM |  | 38 nM
11 | AGAUGACUGGAGGAUAUCCGAUGCUUCCUGCCAGGAGAAGGCCGGACAUGAGGAUCACCCAUGUGGUGAGCUCG [Vezaatinle] (puzzle: Exclusion 6) | 329 nM | 347 nM | 444 nM |  |  | 
12 | AUGUACCGGUGAGGAUAUUUUUAAUAGAGCUUUAUGAUAUACAUGAGGAUCACCCAUGUUACUUUAAAGAAGGCAUCGGAUUAA [Mat - Exclusion NG 2 - Mod of JL - D90] (Eterna round: R96, puzzle: Exclusion NG 2) |  |  |  |  | 12.8 nM | 
13 | CGUCAACAUGAGGAUCACCCAUGUUAGGAUAUAGAGCCAGGGCACGACGCUAACCAGUCUAGAAGGGACGUGGG [Eternabot (Original) Solution 5] (Eterna round: R97, puzzle: Exclusion 1) |  |  |  | 45.9 nM |  | 37.1 nM
14 | AUGCCCUGAGGAUAUCUCAUCCCGCACAUGAGGAUCACCCAUGUUCUUCUCCGGGCUCCGAGAGAAGGCAGGCCUA [Armus6] (Eterna round: R97, puzzle: Exclusion 5) |  |  |  | 68.2 nM |  | 102 nM
15 | GUCAUCGCAGGAUAUUAGAGUUUUUACAUGAGGAUCACCCAUGUUAAUUGGGUUAAUGUCUAAGAAGGGCGAUGAA [JR_EX5_Sub013] (Eterna round: R97, puzzle: Exclusion 5) |  |  |  | 126 nM |  | 67.4 nM
16 | GAAAACGAAGAGGAUAUAUGAUAUCAAAGCUUCAUAGAAGGCUUCACAUGAGGAUCACCCAUGUGAUCUUCAAA [jl-ex6-4.07 ViennaUCT mod] (Eterna round: R97, puzzle: Exclusion 6) |  |  |  | 262 nM |  | 37.9 nM
17 | AGCUUUUUGUUCGUCUUACACAUGAGGAUCACCCAUGUGUUGGACCGCAUCGAUAGAUGUAGACCGAGAAGCAUGGG [Omdei Mir OFFv1 C8] (Eterna round: R97, puzzle: Sensor, turn-off variant 1) |  |  |  | 24.5 nM |  | 23.8 nM

Row | Sequence | apparent KD of MS2 coat protein [1] | apparent KD of MS2 coat protein [2] | apparent KD of MS2 coat protein [3] | apparent KD of MS2 coat protein (input ligand: FMN 200 uM) | apparent KD of MS2 coat protein [4] | apparent KD of MS2 coat protein (input ligand: none)
18 | AACUCUGAGGAGGAUAUACAGUGCGAAAGGACAGUAGAAGGCUUCACAUGAGGAUCACCCAUGUCGAAUAGUGA [EX6 #78] (Eterna round: R97, puzzle: Exclusion 6) |  |  |  | 68 nM |  | 51.9 nM
19 | CCGACAAGCUGCUAAGGAUACAUGAGGAUCACCCAUGUCGGUAUCCGAGAGGUAUUGAAGUCAACCAUCGCUCGUCU [Eternabot (Original) Solution 49] (Eterna round: R97, puzzle: Sensor, turn-off variant 1) |  |  |  | 167 nM |  | 188 nM
20 | UGUUGUUACGCAGGAUAUGUAUGAGGAUCACCCAUAAGAGUAUAUUUACCAUGAGGAUCACCCAUGUAGAAGGGCGGGUUAACA [pwkr exNG2 2xF5 1xFMN.10] (Eterna round: R96, puzzle: Exclusion NG 2) |  |  |  | 224 nM | 109 nM | 144 nM
21 | CUAGUAUAUCAGGAUAUGAUAGCUUAUAGCAUAUCAGAAGGGAUUACAUGAGGAUCACCCAUGUGAAGGGAUGA [eternacac ex6r4 sub17] (Eterna round: R97, puzzle: Exclusion 6) |  |  |  | 331 nM |  | 275 nM
22 | AGCCUACAUGAGGAUCACCCAUGUCAGGAUAUCUCGCGACAUGUCAAGUUCACGUUGCAGAGAAGGGACUCGGG [Ononxe] (Eterna round: R96, puzzle: Exclusion 1) |  |  |  | 108 nM | 41 nM | 54.1 nM
23 | AAAGGGCGUGUGAGGAUAUCGACCCGACUUCCAGUCGAGAAGGCACAUGAGGAUCACCCAUGUGAUGACAGCGA [BmEX4 B.8] (Eterna round: R97, puzzle: Brourd's mod of Exclusion 4) |  |  |  | 38.4 nM |  | 16.2 nM
24 | GGAUAAAACUGAGGAUAUGAGGAGAGAGAGAGAUCAGAAGGCAGACAUGAGGAUCACCCAUGUGAGUUCUCGAUAAGAAACACG [Prohibition 56 - Jieux - Exclusion NG 1] (Eterna round: R96, puzzle: Exclusion NG 1) |  |  |  | 58.9 nM | 30.7 nM | 38.3 nM
25 | GUAAACCGGUGAGGAUAUUUAUAAUAGAGCUUUAUGAUAUACAUGAGGAUCACCCAUGUUACUUUAAAGAAGGCAUCGGAAAUG [Mat - Exclusion NG 2 - Mod of JL - D95] (Eterna round: R96, puzzle: Exclusion NG 2) |  |  |  |  | 15.5 nM | 
26 | UUGUUCCGUGUAGGAUAUUGGUCUCCCUCGGGCCGAGAAGGACAUGAGGAUCACCCAUGUAUGCUAUUAUCGCGCGUGGCGCAU [Design 92] (Eterna round: R96, puzzle: Exclusion NG 1) |  |  |  | 209 nM | 48.5 nM | 58.9 nM
27 | CAUUGACAUGAGGAUCACCCAUGUCAGGAUAUGCUUCAUGACACGAAAGUGUCAUGAAGCAGAAGGGACAUGCC [SS1 Omei 1] (puzzle: Exclusion 1) |  | 19.5 nM |  |  |  | 
28 | UGACUACAUGAGGAUCACCCAUGUCAGGAUAUGCCGUUAAAUUAACAUCAACAUACGGGUAGAAGGGACAGCGU [1st #5] (Eterna round: R97, puzzle: Exclusion 1) |  |  |  | 27.2 nM |  | 29.4 nM
29 | CGAUAAAAGACAGGAUAUGAGGAGAGAGAGAGAUCAGAAGGGUCACAUGAGGAUCACCCAUGUGAGUUCUCGAAAGGAAAGAGG [Prohibition 51 - Jieux - Exclusion NG 1] (Eterna round: R96, puzzle: Exclusion NG 1) |  |  |  | 21.4 nM | 15 nM | 23 nM
30 | UUGAAGAUAGGAUAUACGAGGAGAGGAGAGAGAAGGUGAGGACAUGAGGAUCACCCAUGUAGAAGGAUCAGGAA [JR_Exclu2_Sub065] (puzzle: Exclusion 2) |  | 75.4 nM |  |  |  | 
31 | CAUGGAACAUAGGAUAUCUCGCGGCUAGACUGCAGAGAAGGAUGUACAUGAGGAUCACCCAUGUAUGAUCCAGU [Leisceza] (puzzle: Exclusion 6) | 29.3 nM | 15.8 nM | 17.3 nM |  |  | 
32 | CUUUUGUGAGGAUAUUCGUAGUAAAUGAAUAAAAUUAUUACGGAGAAGGCACAUGAGGAUCACCCAUGUUCCUU [Mat - Exclusion 4 - Eli Mod - D32] (Eterna round: R97, puzzle: Exclusion 4) |  |  |  | 53.2 nM |  | 16.7 nM
33 | ACAUGUGUUGUAGGAUAUAGGAGACAUGAGGAUCACCCAUGUUGAUUCAUGUCUAUGGAAACGUCCUAGAAGGACGACAAUAUG [Ex NG2 #19] (Eterna round: R96, puzzle: Exclusion NG 2) |  |  |  | 283 nM | 179 nM | 272 nM
34 | CUUCUGUGAGGAUAUUAGUAGUAAAUGAAUAAAAUUAUUACUGAGAAGGCACAUGAGGAUCACCCAUGUUCCUC [Mat - Exclusion 4 - Eli Mod - D12] (Eterna round: R97, puzzle: Exclusion 4) |  |  |  | 386 nM |  | 36.3 nM
